Laboratory results reported in US20030105278A1 (MERK, published 2003).
Bridges are numbered along the chain shown (N, C = ends). Where no end group is shown, it is not given here.

B1: MCH analog SEQ. ID. NO. 31 (position 6: Ac-Ala) (peptide)
peptide: Ac-ACMLGRVYRPC-NH2
modifications: disulfide 2-11
SMILES: CSCC[C@@H]1NC(=O)[C@@H](NC(=O)[C@H](C)NC(C)=O)CSSC[C@@H](C(N)=O)NC(=O)[C@@H]2CCCN2C(=O)[C@H](CCCNC(=N)N)NC(=O)[C@H](Cc2ccc(O)cc2)NC(=O)[C@H](C(C)C)NC(=O)[C@H](CCCNC(=N)N)NC(=O)CNC(=O)[C@H](CC(C)C)NC1=O
notes: ID; NO; 7 peptide; MCH position numbering
B2: MCH analog SEQ. ID. NO. 33 (position 6: Ac-Pro) (peptide)
peptide: PCMLGRVYRPC
modifications: Ac-Pro at position 6 (N-terminal acetyl); C-terminal amide, Cys-Cys disulfide as in SEQ. ID. NO. 7
notes: as for B1
B3: MCH analog SEQ. ID. NO. 35 (position 6: Ac-Ser) (peptide)
peptide: SCMLGRVYRPC
modifications: Ac-Ser at position 6 (N-terminal acetyl); C-terminal amide, Cys-Cys disulfide as in SEQ. ID. NO. 7
notes: as for B1
B4: MCH analog SEQ. ID. NO. 34 (position 6: Ac-Asn) (peptide)
peptide: NCMLGRVYRPC
modifications: Ac-Asn at position 6 (N-terminal acetyl); C-terminal amide, Cys-Cys disulfide as in SEQ. ID. NO. 7
notes: as for B1
B5: MCH analog SEQ. ID. NO. 36 (position 6: Ac-Glu) (peptide)
peptide: ECMLGRVYRPC
modifications: Ac-Glu at position 6 (N-terminal acetyl); C-terminal amide, Cys-Cys disulfide as in SEQ. ID. NO. 7
notes: as for B1
B6: MCH analog SEQ. ID. NO. 42 (position 6: Ac-D-Nle) (peptide)
peptide: XCMLGRVYRPC
modifications: Ac-D-Nle at position 6; C-terminal amide, Cys-Cys disulfide as in SEQ. ID. NO. 7
notes: as for B1
B7: MCH analog SEQ. ID. NO. 41 (position 6: Ac-D-Arg) (peptide)
peptide: XCMLGRVYRPC
modifications: Ac-D-Arg at position 6; C-terminal amide, Cys-Cys disulfide as in SEQ. ID. NO. 7
notes: ID; NO; 7 peptide; MCH position numbering; 15 (D-Arg^6)
B8: MCH analog SEQ. ID. NO. 38 (position 6: Ac) (peptide)
peptide: Ac-CMLGRVYRPC-NH2
modifications: disulfide 1-10
SMILES: CSCC[C@@H]1NC(=O)[C@@H](NC(C)=O)CSSC[C@@H](C(N)=O)NC(=O)[C@@H]2CCCN2C(=O)[C@H](CCCNC(=N)N)NC(=O)[C@H](Cc2ccc(O)cc2)NC(=O)[C@H](C(C)C)NC(=O)[C@H](CCCNC(=N)N)NC(=O)CNC(=O)[C@H](CC(C)C)NC1=O
notes: as for B1
B9: MCH analog SEQ. ID. NO. 45 (position 6: Ac-D-Ser) (peptide)
peptide: XCMLGRVYRPC
modifications: Ac-D-Ser at position 6; C-terminal amide, Cys-Cys disulfide as in SEQ. ID. NO. 7
notes: as for B1
B10: MCH analog SEQ. ID. NO. 39 (position 6: Arg) (peptide)
peptide: RCMLGRVYRPC-NH2
modifications: disulfide 2-11 (inferred)
notes: as for B1
B11: MCH analog SEQ. ID. NO. 37 (position 6: H) (peptide)
peptide: H-CMLGRVYRPC-NH2
modifications: disulfide 1-10
notes: as for B1
B12: MCH analog SEQ. ID. NO. 60 (position 10: β-Ala) (peptide)
peptide: RCMLXRVYRPC
modifications: β-Ala at position 10; N-terminal acetyl, C-terminal amide, Cys-Cys disulfide as in SEQ. ID. NO. 7
B13: MCH analog SEQ. ID. NO. 55 (position 10: D-Leu) (peptide)
peptide: RCMLXRVYRPC
modifications: D-Leu at position 10; N-terminal acetyl, C-terminal amide, Cys-Cys disulfide as in SEQ. ID. NO. 7
B14: MCH analog SEQ. ID. NO. 50 (position 10: Pro) (peptide)
peptide: Ac-RCMLPRVYRPC-NH2
modifications: disulfide 2-11 (inferred)
notes: as for B1
B15: MCH analog SEQ. ID. NO. 53 (position 10: Lys) (peptide)
peptide: Ac-RCMLKRVYRPC-NH2
modifications: disulfide 2-11 (inferred)
notes: as for B1
B16: MCH analog SEQ. ID. NO. 51 (position 10: Asn) (peptide)
peptide: Ac-RCMLNRVYRPC-NH2
modifications: disulfide 2-11 (inferred)
notes: as for B1
B17: MCH analog SEQ. ID. NO. 52 (position 10: Ser) (peptide)
peptide: Ac-RCMLSRVYRPC-NH2
modifications: disulfide 2-11 (inferred)
notes: as for B1
B18: MCH analog SEQ. ID. NO. 48 (position 10: Leu) (peptide)
peptide: Ac-RCMLLRVYRPC-NH2
modifications: disulfide 2-11 (inferred)
notes: as for B1
B19: MCH analog SEQ. ID. NO. 47 (position 10: Ala) (peptide)
peptide: Ac-RCMLARVYRPC-NH2
modifications: disulfide 2-11 (inferred)
notes: as for B1
B20: MCH analog SEQ. ID. NO. 54 (position 10: Glu) (peptide)
peptide: Ac-RCMLERVYRPC-NH2
modifications: disulfide 2-11 (inferred)
notes: as for B1

The binders below were run against T1, human MCH receptor (membranes from a stable CHO or HEK-293 cell line) (human, UniProt Q99705 1-353) (assay: competition vs [125I]-human MCH (Phe13,Tyr19); human MCH receptor cell membranes (Example 3)).
T1 construct: whole, on cells; also called cloned human MCH receptor (CHO clone)
T1 sequence (Q99705 whole entry): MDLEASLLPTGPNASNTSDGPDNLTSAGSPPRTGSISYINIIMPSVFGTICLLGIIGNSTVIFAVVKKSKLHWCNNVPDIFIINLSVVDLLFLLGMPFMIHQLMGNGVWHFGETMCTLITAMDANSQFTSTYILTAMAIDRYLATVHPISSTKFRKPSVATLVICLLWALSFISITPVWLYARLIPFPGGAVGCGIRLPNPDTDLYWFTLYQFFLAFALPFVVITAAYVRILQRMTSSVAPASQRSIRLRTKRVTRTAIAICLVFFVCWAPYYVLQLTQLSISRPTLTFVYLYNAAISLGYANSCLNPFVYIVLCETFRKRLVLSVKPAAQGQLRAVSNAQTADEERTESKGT

In order of falling IC50:
1. B1  27 nM
2. B5  19 nM
3. B11  12 nM
4. B3  4.5 nM
5. B2  3.4 nM
6. B4  2.6 nM
7. B9  2.3 nM
8. B8  1.6 nM
9. B6  1.2 nM
10. B7  0.46 nM
11. B10  0.13 nM

The binders below were run against T2, human MCH receptor expressed from the open reading frame cDNA SEQ. ID. NO. 1 in 293-AEQ17 cells (human, UniProt Q99705 1-353) (assay: cell-based or functional assay).
T2 sequence (Q99705 whole entry): as above

Binder DFDMLRCMLGRVYRPCWQV (disulfide 7-16) [mammalian MCH (SEQ. ID. NO. 11)] has an Activation % of 100%.

Target: T2, human MCH receptor expressed from the …
Experiment: cell-based or functional assay
Remark: another data set of the same source

In order of rising Activation %:
1. B12  3.2%
2. B14  4%
3. B20  12%
4. B13  23%
5. B15  25%
6. DFDMLRCMLGRVYRPCWQV (disulfide 7-16) [mammalian MCH (SEQ. ID. NO. 11)]  100%
7. B17  104%
8. B19  104%
9. B16  106%
10. B18  106%

Compared with B12, B14 is lower in “EC50” value: > 1000 nM for the first, 519 nM for the second.

Going from B15 to B16, the “EC50” value falls from 4500 nM to 23 nM (200-fold).

Compared with B17, B18 is 2.8-fold lower in “EC50” value: 65 nM for the first, 23 nM for the second.

Going from B19 to B20, the “EC50” value rises from 31 nM to > 10000 nM.

Target: T2, human MCH receptor expressed from the …
Experiment: cell-based or functional assay
Remark: another data set of the same source

In the case of DFDMLRCMLGRVYRPCWQV (disulfide 7-16) [mammalian MCH (SEQ. ID. NO. 11)], the Activation % is reported as 100%.

Target: T2, human MCH receptor expressed from the …
Experiment: cell-based or functional assay
Remark: another data set of the same source

DFDMLRCMLGRVYRPCWQV (disulfide 7-16) [mammalian MCH (SEQ. ID. NO. 11)] showed an Activation % of 100%.

Target: T1, human MCH receptor (membranes from a …)
Experiment: competition vs [125I]-human MCH (Phe13,Tyr19); human MCH receptor cell membranes (Example 3)
Remark: another data set of the same source

In order of rising IC50:
1. B18  0.06 nM
2. B16  0.23 nM
3. B17  0.32 nM
4. B19  0.59 nM
5. B15  110 nM
6. B20  190 nM
7. B14  700 nM

Target: T2, human MCH receptor expressed from the …
Experiment: cell-based or functional assay
Remark: another data set of the same source

Binder DFDMLRCMLGRVYRPCWQV (disulfide 7-16) [mammalian MCH (SEQ. ID. NO. 11)] has an Activation % of 100%.

Target: T2, human MCH receptor expressed from the …
Experiment: cell-based or functional assay
Remark: another data set of the same source

In order of rising Activation %:
1. B8  82%
2. B7  86%
3. B9  93%
4. B4  96%
5. B6  97%
6. DFDMLRCMLGRVYRPCWQV (disulfide 7-16) [mammalian MCH (SEQ. ID. NO. 11)]  100%
7. B10  106%
8. B5  113%
9. B3  120%
10. B11  120%
11. B2  133%
12. B1  135%

In order of rising “EC50” value:
1. B10  14 nM
2. B7  45 nM
3. B2  59 nM
4. B6  110 nM
5. B1  114 nM
6. B8  144 nM
7. B4  150 nM
8. B3  207 nM
9. B11  809 nM
10. B5  935 nM

Target: T2, human MCH receptor expressed from the …
Experiment: cell-based or functional assay
Remark: another data set of the same source

For DFDMLRCMLGRVYRPCWQV (disulfide 7-16) [mammalian MCH (SEQ. ID. NO. 11)], the “% Activation at 10 µM” value was 100%.
